What follows are substances tested against acetylcholine receptor (Homo sapiens, UniProt P02708) (assay: SPR binding affinity (RU) of optimized 5mer/6mer/7mer peptides, Examples 6-7). Conditions: SPR, peptides tested at 10 μM; 5mer Top sequence.
Protocol: Based on the frequencies of occurrence of the top 7 amino acids from Table 7 in Example 5, 600 peptides comprising these amino acids (top combinations) and those comprising the 13 less frequently occurring amino acids (bottom combinations) were synthesized for each series of 5mer, 6mer-1, and 6mer-2. The binding affinity of each sequence for the acetylcholine receptor was measured using Surface Plasmon Resonance (SPR) analysis method. The peptides were tested at a concentration of 10 μM. Additionally, the average binding affinities of the top and bottom combinations in each series are depicted in FIGS. 5-7.
Representative peptides identified in Example 6, two in each library, including 5mers (73, 311) and 6mers-1 (43, 210) and 6mers-2 (136, 233), were compared with the pre-optimized 6mer, 5mer-ND, and Synake.

Sequence of acetylcholine receptor (P02708 21-457): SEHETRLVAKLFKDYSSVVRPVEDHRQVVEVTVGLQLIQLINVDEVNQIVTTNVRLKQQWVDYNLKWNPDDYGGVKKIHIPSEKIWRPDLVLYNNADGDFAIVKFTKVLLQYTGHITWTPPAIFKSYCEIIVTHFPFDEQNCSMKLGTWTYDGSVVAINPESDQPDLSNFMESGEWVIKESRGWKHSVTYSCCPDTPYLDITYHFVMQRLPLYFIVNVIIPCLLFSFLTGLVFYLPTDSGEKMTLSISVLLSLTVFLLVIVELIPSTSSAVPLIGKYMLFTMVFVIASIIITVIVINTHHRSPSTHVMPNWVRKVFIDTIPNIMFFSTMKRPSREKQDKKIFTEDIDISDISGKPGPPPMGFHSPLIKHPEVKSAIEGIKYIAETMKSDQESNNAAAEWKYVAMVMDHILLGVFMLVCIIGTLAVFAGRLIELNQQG

Compared with 5mer-133 (KGQRK), 5mer-134 (RQFSK) is lower in Binding affinity: 84 Ru for the first, 61 Ru for the second.

Compared with 5mer-135 (RRLLR), 5mer-136 (RRIYK) is higher in Binding affinity: 64 Ru for the first, 75 Ru for the second.

Going from 5mer-137 (KGVSK) to 5mer-138 (RQRCR), the Binding affinity falls from 77 Ru to 71 Ru.

Going from 5mer-139 (RLQYK) to 5mer-140 (KWRLR), the Binding affinity falls from 73 Ru to 69 Ru.

First: 5mer-141 (RWQQR)
Second: 5mer-142 (RQYSR)
The Binding affinity of the first is lower: 50 Ru for the first, 52 Ru for the second.

First: 5mer-143 (KGQQR)
Second: 5mer-144 (KRFSK)
The Binding affinity of the first is higher: 64 Ru for the first, 58 Ru for the second.

First: 5mer-145 (RSFSK)
Second: 5mer-146 (RWFTK)
The Binding affinity of the first is higher: 62 Ru for the first, 52 Ru for the second.

Going from 5mer-147 (RRYQK) to 5mer-148 (RSQTK), the Binding affinity falls from 66 Ru to 50 Ru.

First: 5mer-149 (KQFLR)
Second: 5mer-150 (RVRTR)
The Binding affinity of the first is higher: 80 Ru for the first, 64 Ru for the second.

Going from 5mer-151 (RVFTK) to 5mer-152 (RRRRR), the Binding affinity falls from 66 Ru to 56 Ru.

Compared with 5mer-153 (RSIQK), 5mer-154 (RSITR) is lower in Binding affinity: 72 Ru for the first, 54 Ru for the second.

First: 5mer-155 (KRYLR)
Second: 5mer-156 (KGLRK)
The Binding affinity of the first is lower: 57 Ru for the first, 85 Ru for the second.

Going from 5mer-157 (KGRCR) to 5mer-158 (RWQTK), the Binding affinity falls from 78 Ru to 65 Ru.

Going from 5mer-159 (RGQRR) to 5mer-160 (RSIRR), the Binding affinity falls from 73 Ru to 53 Ru.

Going from 5mer-161 (KWVTK) to 5mer-162 (RGYQR), the Binding affinity falls from 52 Ru to 51 Ru.

Compared with 5mer-163 (KSLCK), 5mer-164 (KSICK) is lower in Binding affinity: 61 Ru for the first, 54 Ru for the second.

Compared with 5mer-165 (KWRSK), 5mer-166 (KSFQR) is lower in Binding affinity: 56 Ru for the first, 55 Ru for the second.

First: 5mer-167 (KQFRK)
Second: 5mer-168 (KLFSK)
The Binding affinity of the first is lower: 64 Ru for the first, 84 Ru for the second.

First: 5mer-169 (RWYRK)
Second: 5mer-170 (RLICK)
The Binding affinity of the first is lower: 61 Ru for the first, 62 Ru for the second.

First: 5mer-171 (KSIQR)
Second: 5mer-172 (RSRRR)
The Binding affinity of the first is lower: 55 Ru for the first, 82 Ru for the second.

5mer-173 (RSVSR) and 5mer-174 (KGRQR) are the same in Binding affinity: 59 Ru for the first, 59 Ru for the second.

Going from 5mer-175 (RWQLK) to 5mer-176 (RVLYK), the Binding affinity falls from 63 Ru to 52 Ru.

Compared with 5mer-177 (RWVRK), 5mer-178 (RRVLK) is higher in Binding affinity: 77 Ru for the first, 87 Ru for the second.

First: 5mer-179 (RLYTK)
Second: 5mer-180 (KQRYR)
The Binding affinity of the first is lower: 55 Ru for the first, 74 Ru for the second.

Compared with 5mer-181 (RSLLK), 5mer-182 (RVLSK) is lower in Binding affinity: 72 Ru for the first, 70 Ru for the second.

First: 5mer-183 (KRVYR)
Second: 5mer-184 (KLQCR)
The Binding affinity of the first is lower: 64 Ru for the first, 68 Ru for the second.

Going from 5mer-185 (RRYRR) to 5mer-186 (KRLQR), the Binding affinity falls from 86 Ru to 64 Ru.

First: 5mer-187 (RWVCR)
Second: 5mer-188 (KWFSK)
The Binding affinity of the first is lower: 74 Ru for the first, 82 Ru for the second.

First: 5mer-189 (RLLQK)
Second: 5mer-190 (RWRSR)
The Binding affinity of the first is lower: 65 Ru for the first, 84 Ru for the second.

5mer-191 (RVRCR) and 5mer-192 (KSFRK) are the same in Binding affinity: 75 Ru for the first, 75 Ru for the second.

Going from 5mer-193 (RVIRK) to 5mer-194 (KWQSK), the Binding affinity rises from 80 Ru to 84 Ru.

Compared with 5mer-195 (KVVSR), 5mer-196 (RSYYR) is lower in Binding affinity: 82 Ru for the first, 69 Ru for the second.

Compared with 5mer-197 (RSRQK), 5mer-198 (KLISR) is higher in Binding affinity: 68 Ru for the first, 74 Ru for the second.

First: 5mer-199 (KRYQR)
Second: 5mer-200 (KRVRR)
The Binding affinity of the first is higher: 84 Ru for the first, 55 Ru for the second.

Going from 5mer-201 (RWIYR) to 5mer-202 (KWYRR), the Binding affinity rises from 62 Ru to 65 Ru.

Going from 5mer-203 (RQLTR) to 5mer-204 (RQFQR), the Binding affinity rises from 78 Ru to 84 Ru.

Going from 5mer-205 (RWYYR) to 5mer-206 (KLQLR), the Binding affinity falls from 75 Ru to 57 Ru.

Going from 5mer-207 (KQVRR) to 5mer-208 (KLICR), the Binding affinity rises from 72 Ru to 80 Ru.

First: 5mer-209 (RGVRR)
Second: 5mer-210 (KVYYR)
The Binding affinity of the first is higher: 78 Ru for the first, 67 Ru for the second.

In the case of 5mer-211 (RLYYR), the Binding affinity is reported as 73 Ru.

Same assay, conditions: SPR, peptides tested at 10 μM; 5mer Top sequence (top combinations)

Going from 5mer-212 (KQQYK) to 5mer-213 (RQYTK), the Binding affinity rises from 64 Ru to 83 Ru.

5mer-214 (KQQCK) and 5mer-215 (RQYRR) are the same in Binding affinity: 79 Ru for the first, 79 Ru for the second.

First: 5mer-216 (KWVRR)
Second: 5mer-217 (KLQRR)
The Binding affinity of the first is lower: 56 Ru for the first, 72 Ru for the second.

Going from 5mer-218 (KVQYK) to 5mer-219 (KQYTR), the Binding affinity falls from 80 Ru to 55 Ru.

Going from 5mer-220 (KRILR) to 5mer-221 (RGRTR), the Binding affinity falls from 81 Ru to 58 Ru.

Going from 5mer-222 (KWLLR) to 5mer-223 (KQVRK), the Binding affinity falls from 86 Ru to 61 Ru.

First: 5mer-224 (RLQRR)
Second: 5mer-225 (KRQQK)
The Binding affinity of the first is higher: 67 Ru for the first, 51 Ru for the second.

Going from 5mer-226 (RRYTR) to 5mer-227 (RRQQR), the Binding affinity rises from 60 Ru to 84 Ru.

Compared with 5mer-228 (KRFLK), 5mer-229 (KGLTR) is higher in Binding affinity: 53 Ru for the first, 84 Ru for the second.

Going from 5mer-230 (KVLCR) to 5mer-231 (KGLLK), the Binding affinity falls from 67 Ru to 60 Ru.

Going from 5mer-232 (KWYTR) to 5mer-233 (RVYYK), the Binding affinity rises from 71 Ru to 84 Ru.

Going from 5mer-234 (RQYCR) to 5mer-235 (KGYSK), the Binding affinity rises from 62 Ru to 70 Ru.

Compared with 5mer-236 (KRRCK), 5mer-237 (RGLRK) is lower in Binding affinity: 81 Ru for the first, 77 Ru for the second.

Compared with 5mer-238 (KQVLK), 5mer-239 (KRLYR) is higher in Binding affinity: 58 Ru for the first, 61 Ru for the second.

5mer-240 (KWRYR) and 5mer-241 (KVRCR) are the same in Binding affinity: 51 Ru for the first, 51 Ru for the second.

Compared with 5mer-242 (RGYTK), 5mer-243 (KLLSK) is lower in Binding affinity: 64 Ru for the first, 51 Ru for the second.

Compared with 5mer-244 (KSVSK), 5mer-245 (RQRSK) is lower in Binding affinity: 78 Ru for the first, 62 Ru for the second.

Compared with 5mer-246 (KSFTR), 5mer-247 (RWYCR) is higher in Binding affinity: 60 Ru for the first, 80 Ru for the second.

Compared with 5mer-248 (RWYLK), 5mer-249 (RSYCR) is lower in Binding affinity: 63 Ru for the first, 52 Ru for the second.

Going from 5mer-250 (RQFSR) to 5mer-251 (KRISK), the Binding affinity falls from 76 Ru to 70 Ru.

Going from 5mer-252 (KQYRK) to 5mer-253 (RSLYR), the Binding affinity rises from 53 Ru to 75 Ru.

Going from 5mer-254 (KLLRK) to 5mer-255 (KQRTR), the Binding affinity falls from 87 Ru to 82 Ru.

Compared with 5mer-256 (RGVCK), 5mer-257 (RQFTR) is higher in Binding affinity: 60 Ru for the first, 85 Ru for the second.

Compared with 5mer-258 (KRQYK), 5mer-259 (RLIRK) is lower in Binding affinity: 84 Ru for the first, 71 Ru for the second.

Going from 5mer-260 (KVYRR) to 5mer-261 (RRVLR), the Binding affinity rises from 57 Ru to 59 Ru.

First: 5mer-262 (KSRCR)
Second: 5mer-263 (KQVTR)
The Binding affinity of the first is lower: 59 Ru for the first, 80 Ru for the second.

Going from 5mer-264 (KWYRK) to 5mer-265 (RWQCR), the Binding affinity rises from 50 Ru to 77 Ru.

5mer-266 (KSYQK) and 5mer-267 (KRLLK) are the same in Binding affinity: 66 Ru for the first, 66 Ru for the second.

Going from 5mer-268 (KRYCK) to 5mer-269 (RLFLR), the Binding affinity rises from 54 Ru to 85 Ru.

Going from 5mer-270 (RSQQR) to 5mer-271 (RGRYR), the Binding affinity rises from 52 Ru to 68 Ru.

Going from 5mer-272 (KGYQR) to 5mer-273 (RVQSK), the Binding affinity falls from 83 Ru to 82 Ru.

First: 5mer-274 (RQVRK)
Second: 5mer-275 (KVYTR)
The Binding affinity of the first is lower: 62 Ru for the first, 64 Ru for the second.

Going from 5mer-276 (RSLRR) to 5mer-277 (RVFTR), the Binding affinity rises from 70 Ru to 82 Ru.

First: 5mer-278 (RWQRR)
Second: 5mer-279 (RVVTK)
The Binding affinity of the first is higher: 66 Ru for the first, 56 Ru for the second.

First: 5mer-280 (KWILK)
Second: 5mer-281 (RGFLK)
The Binding affinity of the first is lower: 53 Ru for the first, 58 Ru for the second.

First: 5mer-282 (RVLTR)
Second: 5mer-283 (KWVYK)
The Binding affinity of the first is higher: 77 Ru for the first, 51 Ru for the second.

Going from 5mer-284 (KQVQR) to 5mer-285 (KGQLK), the Binding affinity rises from 52 Ru to 75 Ru.

First: 5mer-286 (RWFQK)
Second: 5mer-287 (KRYRR)
The Binding affinity of the first is higher: 71 Ru for the first, 68 Ru for the second.

First: 5mer-288 (KLILK)
Second: 5mer-289 (RRQYR)
The Binding affinity of the first is lower: 73 Ru for the first, 87 Ru for the second.

Compared with 5mer-290 (RGYYR), 5mer-291 (RWFTR) is higher in Binding affinity: 57 Ru for the first, 72 Ru for the second.

First: 5mer-292 (KLVCK)
Second: 5mer-293 (RQYYR)
The Binding affinity of the first is lower: 59 Ru for the first, 83 Ru for the second.

Going from 5mer-294 (KQYYK) to 5mer-295 (RGRCR), the Binding affinity rises from 50 Ru to 52 Ru.

Compared with 5mer-296 (KWISK), 5mer-297 (RSLRK) is higher in Binding affinity: 55 Ru for the first, 81 Ru for the second.

Going from 5mer-298 (KSIYR) to 5mer-299 (KGRRK), the Binding affinity falls from 75 Ru to 62 Ru.

With 5mer-300 (RQYRK) the Binding affinity was 81 Ru.
